Source: US20180028658A1

Assays:
[1] = target: HIV-1 Yu2 gp160 (Env) expressed on the 293T cell surface (HIV-1 Yu2) (UniProt P35961); assay: flow cytometry, 293T cells transfected with Yu2 gp160, primary antibody 10 µg/ml
[2] = target: HIV-1 gp41 (strain not stated) (HIV-1); assay: SPR (BIAcore), Env protein immobilized on CM5 chip, antibody as analyte
[3] = target: Recombinant HIV-1 gp41MN (HIV-1 MN) (UniProt P05877); assay: ELISA on coated gp41 (HIV-1 MN per the example), OD at 405 nm
[4] = target: BG505 SOSIP.664 gp140 trimer (HIV-1 BG505); assay: ELISA on coated BG505 SOSIP.664 gp140 trimer, OD at 405 nm, 1x PBS as blank
[5] = target: SF162 gp140 trimer (HIV-1 SF162) (UniProt P19550); assay: ELISA on coated SF162 gp140 trimer, OD at 405 nm, 1x PBS as blank
SF162 gp140 trimer (HIV-1 SF162), sequence (P19550 32-675 limits assumed): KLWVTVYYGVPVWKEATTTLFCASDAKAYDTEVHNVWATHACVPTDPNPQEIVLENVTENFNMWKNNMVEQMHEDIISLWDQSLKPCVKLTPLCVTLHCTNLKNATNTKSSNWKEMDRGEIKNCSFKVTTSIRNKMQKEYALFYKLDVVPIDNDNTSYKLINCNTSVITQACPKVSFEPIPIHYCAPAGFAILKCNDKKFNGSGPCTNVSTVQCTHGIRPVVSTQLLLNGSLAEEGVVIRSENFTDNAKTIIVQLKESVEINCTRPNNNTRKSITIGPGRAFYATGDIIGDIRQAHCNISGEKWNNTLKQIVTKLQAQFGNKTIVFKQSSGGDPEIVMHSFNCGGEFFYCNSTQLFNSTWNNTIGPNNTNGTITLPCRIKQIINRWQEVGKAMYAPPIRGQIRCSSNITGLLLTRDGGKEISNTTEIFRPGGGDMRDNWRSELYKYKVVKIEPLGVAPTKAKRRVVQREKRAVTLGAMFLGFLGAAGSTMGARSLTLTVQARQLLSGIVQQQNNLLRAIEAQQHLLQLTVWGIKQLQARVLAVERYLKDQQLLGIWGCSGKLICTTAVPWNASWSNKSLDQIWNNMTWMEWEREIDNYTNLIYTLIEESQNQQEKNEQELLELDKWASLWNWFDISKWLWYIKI

[6] = target: full-length gp120 monomer (HIV-1 (Yu2 by the materials, not named in the results)) (UniProt P35961); assay: ELISA on coated full-length gp120 monomer, OD at 405 nm, 1x PBS as blank
[7] = target: full-length gp120 monomer (HIV-1 (Yu2 by the materials, not named in the results)) (UniProt P35961); assay: SPR (BIAcore), Env protein immobilized on CM5 chip, antibody as analyte
[8] = target: HIV-1 gp41 (strain not stated) (HIV-1); assay: method not given
[9] = target: full-length gp120 monomer (HIV-1 (Yu2 by the materials, not named in the results)) (UniProt P35961); assay: method not given
[10] = target: BG505 SOSIP.664 gp140 trimer (HIV-1 BG505); assay: method not given

Substance: HIV 1 V3 Monoclonal Antibody (2191)
- Percentage of recognition of HIV-1 Env [1]: 2.9%

Substance: HIV 1 V3 Monoclonal Antibody (2219)
- Percentage of recognition of HIV-1 Env [1]: 3.1%

Substance: HIV 1 V3 Monoclonal Antibody (2442)
- Percentage of recognition of HIV-1 Env [1]: 6.6%

Substance: HIV 1 V3 Monoclonal Antibody (3074)
- Percentage of recognition of HIV-1 Env [1]: 3.4%

Substance: HIV 1 V3 Monoclonal Antibody (3869)
- Percentage of recognition of HIV-1 Env [1]: 2.6%

Substance: HIV 1 gp41 Monoclonal Antibody (167-7, 67-D IV)
- Percentage of recognition of HIV-1 Env [1]: 11.8%

Substance: HIV-1 MAb PG9 (antibody)
- Percentage of recognition of HIV-1 Env [1]: 6%

Substance: HIV-1 MAb PG16 (antibody)
- Percentage of recognition of HIV-1 Env [1]: 1.5%

Substance: HIV-1 V2V3 Monoclonal Antibody (2909)
- Percentage of recognition of HIV-1 Env [1]: 5.6%

Substance: HIV-1 anti-gp41 mAb (7H6) (antibody)
- Percentage of recognition of HIV-1 Env [1]: 19.8%

Substance: HIV-1 anti-gp41 mAb (10E8) (antibody)
- Kd [2]: 15.5 nM
- koff [2]: 0.000901 s⁻¹
- Percentage of recognition of HIV-1 Env [1]: 11.7%

Substance: HIV-1 gp41 MAb (IgG1 Z13e1) (antibody)
- Percentage of recognition of HIV-1 Env [1]: 5.2%

Substance: HIV-1 gp41 Monoclonal (98-6) (antibody)
- Percentage of recognition of HIV-1 Env [1]: 3.5%

Substance: HIV-1 gp41 Monoclonal (126-7) (antibody)
- Percentage of recognition of HIV-1 Env [1]: 3.2%

Substance: HIV-1 gp41 Monoclonal Antibody (2F5)
- EC50 (read off the curve) [3]: 0.03 µg/mL
- Percentage of recognition of HIV-1 Env [1]: 9.9%

Substance: HIV-1 gp41 Monoclonal Antibody (4E10)
- EC50 (read off the curve) [3]: 0.03 µg/mL
- Kd [2]: 10.8 nM
- koff [2]: 2.14e-05 s⁻¹
- kon [2]: 1980 M⁻¹ s⁻¹
- Percentage of recognition of HIV-1 Env [1]: 13.4%

Substance: HIV-1 gp41 Monoclonal Antibody (5F3)
- Percentage of recognition of HIV-1 Env [1]: 6.4%

Substance: HIV-1 gp41 Monoclonal Antibody (50-69)
- Percentage of recognition of HIV-1 Env [1]: 4.5%

Substance: HIV-1 gp41 Monoclonal Antibody (F240)
- Percentage of recognition of HIV-1 Env [1]: 3.5%

Substance: HIV-1 gp120 MAb (39F) (antibody)
- Percentage of recognition of HIV-1 Env [1]: 2.6%

Substance: HIV-1 gp120 MAb (A32) (antibody)
- Percentage of recognition of HIV-1 Env [1]: 79.2%

Substance: HIV-1 gp120 MAb (HJ16) (antibody)
- Percentage of recognition of HIV-1 Env [1]: 17.6%

Substance: HIV-1 gp120 MAb (VRC01) (antibody)
- Percentage of recognition of HIV-1 Env [1]: 6%
- EC50 (read off the curve) [4]: 0.03 µg/mL
- EC50 (read off the curve) [5]: 0.05 µg/mL
- EC50 (read off the curve) [6]: 0.3 µg/mL

Substance: HIV-1 gp120 MAb (VRC03) (antibody)
- Percentage of recognition of HIV-1 Env [1]: 6.4%

Substance: HIV-1 gp120 Monoclonal (2G12) (antibody)
- Percentage of recognition of HIV-1 Env [1]: 22.8%

Substance: HIV-1 gp120 Monoclonal Antibody (17b)
- Kd [7]: 0.982 nM
- koff [7]: 2.59e-06 s⁻¹
- Percentage of recognition of HIV-1 Env [1]: 1.5%

Substance: HIV-1 gp120 Monoclonal Antibody (48d)
- Percentage of recognition of HIV-1 Env [1]: 3.1%

Substance: HIV-1 gp120 Monoclonal Antibody (F105)
- Percentage of recognition of HIV-1 Env [1]: 4.5%

Substance: HIV-1 gp120 Monoclonal Antibody (F425 B4a1)
- Percentage of recognition of HIV-1 Env [1]: 2.5%

Substance: HIV-1 gp120 Monoclonal Antibody (F425 B4e8)
- Percentage of recognition of HIV-1 Env [1]: 6.4%

Substance: HIV-1 gp120 Monoclonal Antibody (IgG1 b12)
- Percentage of recognition of HIV-1 Env [1]: 9.8%

Substance: Monoclonal Antibodies to HIV-1 V3 (268) (antibody)
- Percentage of recognition of HIV-1 Env [1]: 2.1%

Substance: NIH45-46 (antibody)
- EC50 (read off the curve) [4]: 0.02 µg/mL
- EC50 (read off the curve) [5]: 0.2 µg/mL
- Kd [8]: 1 nM
- Kd [9]: 0.1 nM
- Kd [10]: 0.1 nM
